Target: HLA-A*01:01/hβ2m complex (empty, peptide-free or peptide-receptive) (human)
Assay: FP

- IC50: 278 nM
Binder: ILDTAGQEEY [NRAS_(55-64) wild-type (Q61) peptide]

From PMC10713829 (2023)
